# Laboratory results taken from paper PMC11480844 (2024).
# B1: H2-Kb / Ed23 (parent complex)
# chain 1: QQKVQQSPESLTVSEGAMASLNCTFSDRSSDNFRWYRQHSGKGLEVLVSIFSDGEKEEGSFTAHLNRASLHVFLHIREPQPSDSALYLCAVRGFWTNKVVFGTGTRLQVLP
# chain 2: AQTIHQWPVAEIKAVGSPLSLGCTIKGKSSPNLYWYWQATGGTLQQLFYSITVGQVESVVQLNLSASRPKDDQFILSTEKLLLSHSGFYLCAWSPRQSSYEQYFGPGTRLTVL
# chain 3: not shown
# chain 4: IQKTPQIQVYSRHPPENGKPNILNCYVTQFHPPHIEIQMLKNGKKIPKVEMSDMSFSKDWSFYILAHTEFTPTETDTYACRVKHDSMAEPKTVYWDRDM
# chain 5: SIINFEKL
# B2: H2-Kb / Ed9 (parent complex)
# chain 1: AQSVTQPDARVTVSEGASLQLRCKYSYFGTPYLFWYVQYPRQGLQLLLKYYPGDPVVQGVNGFEAEFSKSNSSFHLRKASVHWSDWAVYFCAVSITGGYKVVFGSGTRLLVSP
# chain 2: DSGVVQSPRHIIKEKGGRSVLTCIPISGHSNVVWYQQTLGKELKFLIQHYEKVERDKGFLPSRFSVQQFDDYHSEMNMSALELEDSAMYFCASSPRQSDYTFGSGTRLLVI
# chain 3: not shown
# chain 4: B1 chain 4
# chain 5: SIINFEKL
# Variants of: B1
# Assay: % of reporter cells activated (NFAT-GFP), raw
# Also: test concentration or dose not given here.
row,ratio to parent,Variant
1,0.604,chain 5 E6Q
2,0.0187,chain 5 E6I
3,0.0859,chain 5 E6V
4,0.157,chain 5 E6A
5,0.486,chain 5 E6M
6,0.0247,chain 5 E6L
7,0.551,chain 5 E6H
8,1.14,chain 5 E6K
9,0.0871,chain 5 E6S
10,0.316,chain 5 E6R
11,0.0348,chain 5 E6N
12,0.828,chain 5 E6D
13,0.0505,chain 5 E6T
14,0.0503,chain 5 E6W
15,1.28,chain 5 E6G
16,0.588,chain 5 E6Y
17,0.147,chain 5 E6F
18,0.0439,chain 5 E6P
19,0.798,chain 5 K7P
20,0.48,chain 5 K7V
21,0.785,chain 5 K7N
22,0.975,chain 5 K7W
23,0.598,chain 5 K7A
24,1.42,chain 5 K7R

row,ratio to parent,Variant
1,0.477,chain 5 K7L
2,0.145,chain 5 K7T
3,1,chain 5 K7S
4,1.18,chain 5 K7G
5,0.919,chain 5 K7C
6,0.0793,chain 5 K7F
7,0.333,chain 5 K7H
8,1.12,chain 5 K7M
9,0.886,chain 5 S1Y
10,1.26,chain 5 S1A
11,0.735,chain 5 S1D
12,0.218,chain 5 S1I
13,0.896,chain 5 S1G
14,0.722,chain 5 S1C
15,1.64,chain 5 S1T
16,1.01,chain 5 S1R
17,1.12,chain 5 S1V
18,0.27,chain 5 S1N
19,1.46,chain 5 S1P
20,0.523,chain 5 S1H
21,0.207,chain 5 S1F
22,0.558,chain 5 S1K
23,1.04,chain 5 N4H
24,1.13,chain 5 N4W

row,ratio to parent,Variant
1,1.22,chain 5 N4R
2,0.0424,chain 5 N4D
3,0.269,chain 5 N4M
4,0.813,chain 5 N4Y
5,0.18,chain 5 N4A
6,0.342,chain 5 N4T
7,0.277,chain 5 N4I
8,0.586,chain 5 N4F
9,0.207,chain 5 N4V
10,0.415,chain 5 N4E
11,0.42,chain 5 N4S
12,0.869,chain 5 N4K
13,0.934,chain 5 L8W
14,1.24,chain 5 L8Y
15,1.06,chain 5 L8C
16,0.856,chain 5 L8V
17,1.05,chain 5 L8N
18,1.13,chain 5 L8F
19,1.24,chain 5 L8P
20,1.21,chain 5 L8Q
21,1.26,chain 5 L8R
22,1.15,chain 5 L8I
23,1.23,chain 5 L8K
24,1.11,chain 5 L8G

row,ratio to parent,Variant
1,1.06,chain 5 I3A
2,0.952,chain 5 I3K
3,1.22,chain 5 I3Q
4,0.17,chain 5 I3Y
5,0.768,chain 5 I3D
6,0.975,chain 5 I3W
7,1.4,chain 5 I3L
8,1.41,chain 5 I3V
9,0.636,chain 5 I3R
10,1.04,chain 5 I3G
11,1.23,chain 5 I3S
12,1.32,chain 5 F5Y
13,1.15,chain 5 F5M
14,1.19,chain 5 F5S
15,0.937,chain 5 F5E
16,1.25,chain 5 F5I
17,0.864,chain 5 F5P
18,1.36,chain 5 F5A
19,0.894,chain 5 F5G
20,0.997,chain 5 F5D
21,1.37,chain 5 F5H
22,1.33,chain 5 F5V
23,1.08,chain 5 F5W
24,1.19,chain 5 F5K

row,ratio to parent,Variant
1,1.3,chain 5 F5C
2,1.28,chain 5 F5R
3,1.28,chain 5 F5N
4,1.33,chain 5 F5T
5,1.07,chain 5 I2W
6,1.38,chain 5 I2P
7,1.39,chain 5 I2E
8,1.54,chain 5 I2K
9,0.96,chain 5 I2Y
10,0.952,chain 5 I2G
11,1.49,chain 5 I2L
12,1.21,chain 5 I2F
13,1.38,chain 5 I2C
14,1.46,chain 5 I2M
15,1.72,chain 5 I2R
16,1.49,chain 5 I2N
17,1.3,chain 5 I2A
18,1.12,chain 5 I2S
19,1.39,chain 5 I2Q
20,1.42,chain 5 I2V
21,1.36,chain 5 I2H
22,1.31,chain 5 I2D

# Variants of: B2
# Assay: % of reporter cells activated (NFAT-GFP), raw
row,ratio to parent,Variant
1,0.226,chain 5 K7E
2,0.957,chain 5 K7T
3,0.546,chain 5 K7M
4,1.13,chain 5 I2F
5,0.82,chain 5 I2Q
6,0.0077,chain 5 N4A
7,0.0154,chain 5 N4S
8,0.012,chain 5 N4F
9,0.00953,chain 5 N4E
10,0.0236,chain 5 N4Q
11,0.0766,chain 5 N4P
12,0.0308,chain 5 N4V
13,0.0606,chain 5 I3Y
14,0.184,chain 5 I3A
15,0.0112,chain 5 S1V
16,0.125,chain 5 S1D

row,ratio to parent,Variant
1,0.0373,chain 5 S1P
2,0.0106,chain 5 S1I
3,0.0945,chain 5 E6Y
4,1.15,chain 5 F5N
5,1.22,chain 5 F5Y
6,1.31,chain 5 F5S
7,1.03,chain 5 F5E
8,1,chain 5 L8W
9,1.23,chain 5 L8Y
10,1.09,chain 5 L8K
11,1.17,chain 5 L8I
12,0.883,chain 5 L8N
13,1.09,chain 5 L8T
14,1,chain 5 L8G
15,1.14,chain 5 L8F
16,0.899,chain 5 L8S
